Like-named read-outs stand apart in the source and are kept apart here.
How the values were obtained:
[1] = system: PmrA I13M (Acinetobacter baumannii ATCC 19606); assay: fluorescence anisotropy
[2] = system: PmrA M12I (Acinetobacter baumannii ATCC 19606); assay: fluorescence anisotropy
[3] = system: PmrA M12I (Acinetobacter baumannii ATCC 19606); assay: fluorescence anisotropy; remark: listed apart in the source
[4] = system: PmrA I13M (Acinetobacter baumannii ATCC 19606); assay: fluorescence anisotropy; remark: listed apart in the source
[5] = molecular target: phosphorylated PmrA D10N (Acinetobacter baumannii (strain ATCC 19606)); assay: native gel or EMSA; Native PAGE after reaction of 40 uM PmrA with 20 uM PmrB and ATP (phosphorylated PmrA); 14% Tris-glycine gel, 4 C
[6] = molecular target: phosphorylated PmrA G54E (Acinetobacter baumannii (strain ATCC 19606)); assay: as above
[7] = molecular target: phosphorylated PmrA I13M (Acinetobacter baumannii (strain ATCC 19606)); assay: as above
[8] = molecular target: phosphorylated PmrA M12I (Acinetobacter baumannii (strain ATCC 19606)); assay: as above
[9] = molecular target: phosphorylated PmrA S119T (Acinetobacter baumannii (strain ATCC 19606)); assay: as above
[10] = molecular target: phosphorylated WT PmrA (Acinetobacter baumannii (strain ATCC 19606)); assay: as above

AbpmrC_30mer FAM
Kd [1]: 17.4 µM | Kd [2]: 21 µM | Kd [3]: 0.0423 µM | Kd [4]: 0.0516 µM

phosphorylated PmrA D10N (natural protein)
stoichiometry N [5]: 2

phosphorylated PmrA G54E (natural protein)
stoichiometry N [6]: 2

phosphorylated PmrA I13M (natural protein)
stoichiometry N [7]: 2

phosphorylated PmrA M12I (natural protein)
stoichiometry N [8]: 2

phosphorylated PmrA S119T (natural protein)
stoichiometry N [9]: 2

phosphorylated WT PmrA (natural protein)
stoichiometry N [10]: 2
